# Molecular target: NarXS1 (NarX periplasmic sensor domain, residues 38 - 151) (Escherichia coli K-12) (UniProt P0AFA2)
# Test: crystal structure
substance,measurement,value
"NarXS1 (NarX periplasmic sensor domain, residues 38 - 151) (from UniProt P0AFA2 38-151) (domain or fragment)",stoichiometry N,2

# — paper PMC3749045
